Laboratory results reported in the nanobody polyreactivity screen of Harvey et al. (2022).

Assay: yeast display, Sf9 membrane polyspecificity reagent, FACS + sequencing; frameworks hold sequencing errors
In short: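 After 36–48 hours of galactose induction, yeast (Saccharomyces cerevisiae BJ5465) displaying a synthetic nanobody library were stained at 4 °C for 1 hour with 10% biotinylated, detergent-solubilized Sf9 membrane reagent. Streptavidin microbeads enriched the stained cells before FACS sorting into low and high (top ~1%) gates on anti-HA and streptavidin fluorescence. Each clone's polyreactivity label reflects its gate of origin.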

## QVQLVESGGGLVQAGGSLRLSCAASGYIFSLNGMGWYRQAPGKVRELVAAITVSGGRTYYADSVKGRFTISRDNAKNTVYLQMNSLKPEDTAVYYCAKRGKYSYWPYYKYDYWGQGTQVTVSS
  polyreactivity (PSR sort gate): high polyreactivity

## QYQLVESGGGLVQAGRTLRLSWAASGRIFVRYVMGCYRQAPVKERELVAAISSSGGSTYYADSVKGRFTISRDNAKNWVYLQIYSLKPEDTAVYYCATDFMDKYILPYDYWGQGTQVTVSS
  polyreactivity (PSR sort gate): low polyreactivity

## QVHQQESGGGLMQAGGSQRLSCAASGSISYYSDMGRYRQAPGKEREFVAGIGYGTTTNYADSVKGRFTTSRDNAKNTVYLQMISMKPEDNAVYYCAAYQGNGYEFYYWGQGTQVTVRS
  polyreactivity (PSR sort gate): low polyreactivity

## QVQLVESGGGLVQAGGSLRLSCAASGGIFWVYAMGWYRQAPGKERELVAAISNSDTSTSYADSVKGRFTISRDNAKNTVYLQMNSLKPEDTAVYYCNADSPSLSGDYWGQGTQVTVSS
  polyreactivity (PSR sort gate): low polyreactivity

## QVQLVESGGGLVQAGGSLRLSCAASGRTFLGYTMGWYRQAPGKESEFVAAITFSGDSTYYADSVKGRFTISRDNAKNTVYLQMNSLKPEDTAVYYCAARIKYYTYLFYYWGQGTQVTVSS
  polyreactivity (PSR sort gate): high polyreactivity

## QVQLVESGGGLVHAGGSLRLSCAASGSIFIYYAMGWYRQPPGKERELVAAIDRSGGNTYYADSVKGRFTISRDYAKTSVYLEMNSLKPEDTAVDYCAAQVHRRVQYDYWGQRTQVTVSS
  polyreactivity (PSR sort gate): high polyreactivity

## QVQLVESGGGLVQAGGSLRLSCAASGSIFVYNAMAWYRPAPGKERELVAAISRGGRTYADSVKGRFTISRDNAKNTVYLQMNSLKPEDTAVYYCAAQGYYRSWYSRQGHYDYWGQGTQVTVSS
  polyreactivity (PSR sort gate): high polyreactivity

## QDQLGESGGGLVQAGGSLRLSCAASGSTFYAYAMGWYRQAPGKERELVATISWSGGSTYADCVKGRFTISRDNAKNTVYLQMNSLKPEDTPVYYCNAAGAFYPTQVHPGYTLWSYDYWGQGTQVTVSS
  polyreactivity (PSR sort gate): low polyreactivity

## QVQLVESGGGLVQAGGSLRLSCAASGSTSVDYTMGWYRQAPGKERELVAAIDYNGDSTYYADSVKGRFTISRDNAKNTVYLQMNSLKPEDTAVYYCAADYLSFVVVKLYGYWGQGTQVTVSS
  polyreactivity (PSR sort gate): low polyreactivity

## QVQLVESGGGLVQAGGSLRLSCAASGSTFQSYAMGRYRQAPGKERELVAAISFSGGSTYYADSVKGRFTISRDNAKNTVYLQMNSLKPEDTAVYYCAKRGWVYFHGYDYWGQGTQVTVSS
  polyreactivity (PSR sort gate): low polyreactivity

## QVQLVESGGGLVQAGGSLRLSCAASGSIFSRNAMGWYRQEPGKEREFVAAISYSSGSTYYADSVNGRFTISRDNAKNTVYLQMNSLKPEDTAVYYCAADTTKLQGVEGDYWGQGTQVTVSS
  polyreactivity (PSR sort gate): low polyreactivity

## QVQLVESGGGLVQAGGSLRLSCAASGITFYRYAMGWYRQAPGKERELVAAISASDGSTYYADSVKGRFTISRDHAKNTVYLQMNSLKPEDTAVYYCNARKGYSYGHWGQGTQVTVSS
  polyreactivity (PSR sort gate): high polyreactivity

## QVQLVESGGGLVQAGGSLRLSCAASGRNFYVYAMGWYRQAPGKERELVATISRGGSTTYADSVKGRFTISRDNAKNTVYLQMNSLKPEDTAVYYCATELLGGRRTVAYYWGQGTQVTVSS
  polyreactivity (PSR sort gate): low polyreactivity

## QLQLVDSGGGLVQAGGSLRLSCAASGSIFAQYAMGWYRQAPEKERELVADISGDGSTYYADSVKGRFTISRDNAKNTVYLQMNSLKPEDTAVYYCADRKLYGSPEHGYWGQGTQVTVSS
  polyreactivity (PSR sort gate): high polyreactivity

## QVQLVESGGGLVQAGGSLRLSCAASGSTFPYNAMGWYRQAPGKERELVAAISWSGGRTYYADSVKGRFTISRDNAKNTVYLQMNSLKPEDTAVDYCAKAVKQYGFYYWGQGTQVTVSS
  polyreactivity (PSR sort gate): high polyreactivity

## QVQLVESGGGLVQAGGSLRLSCADSGRTFYPYVMGWYRQAPGKERELVADISWSGGRTYYADSVKGRFTISRDNAKNTVYLQMYSLKPEDTAVYYCCAGYRRRYNYWGQGTQVTVSS
  polyreactivity (PSR sort gate): high polyreactivity

## QQQLVESDVGLDQAGRSHRLSCAASGFIFAPNAMGWYRQAPGKERELVAAITYRGGGTYYADSVKGRFTISRDNAKNTVYLQMNSLKPEDTAVYYCAAGYDSYYRGSYNYWGQGTQVTVSS
  polyreactivity (PSR sort gate): high polyreactivity

## QVQLVESGGGLVQAGGSLRLSCAASGSISVYNAMGWYRQAPGKERELVAAISWSGGRTSYADSVKGRFTISRDNAKITVYLQMNSLKPEDTALYYCAADELTVLWDEDYWGQGTQVTVSS
  polyreactivity (PSR sort gate): low polyreactivity

## QVQLVDSGGGLVQAGGSLRLSCAASGSILYPYAMGWDRQAPGKEREFVAAITYGGGRTYYADSVKGRFTISRDNAKNTVYLQMNSLKPEDTAVYYCAAKSVYAGRRRIYYLWYDYWGQGTQVTVSS
  polyreactivity (PSR sort gate): high polyreactivity

## QVQLVESGGGLVQAGGSLRLSCAASGRIFSAYAMGWYRQAPGKERELVAVISSADSTNYADSVKGRFTITRDNAKNTVYLQINSLKPEDNAVYYCNARGKHRYGFRSHVGNEYWGQGTQVTVSS
  polyreactivity (PSR sort gate): low polyreactivity

## QVQLVESGGGLVQAGGSLRLSCAASGIIFIFYDMGWYRQAPGKERELVATITSGTNTDADSVKGRFTISRDNAKNTVYLQMNSLKPEDTAVYYCAAGFSPASQLDYWGQGTQVTVSS
  polyreactivity (PSR sort gate): low polyreactivity

## QVQLVESGGGLVQAGGSLRLSCAASGITLYDNAMGWYRQEPGKERELVAAINVNDVSTYYADSVKGRFTISRDNAKNTVYLQMNSLKPEDTAVYYCAADSLYYGIGYWVVRYDYWGQGTQVTVSS
  polyreactivity (PSR sort gate): low polyreactivity

## QVQLVESGCGLVHAGGSLRLSCAASGSNFGDYAMGCYRQAPGKERELVAAITKSGGTTYYADSVKGRFTISRDNAKNTVYLQMNSLKPEDTSFYYCAADPIRYRSRHKYGYWGQGTQVTVSS
  polyreactivity (PSR sort gate): low polyreactivity

## QVQLEESGGGLVQAGGSLRLSCAASGSIFVTNVMGWYRQAPGKERELVAVINSGGRTYYADSVKGRFTISRDNAKNTVYLQMNSLKPEDTAVYYCAKDSWSSYPSLYPEFDYWGQGTQVTVSS
  polyreactivity (PSR sort gate): low polyreactivity

## QVQLVESGGGLVQAGGSLRLSCAASGSISKINAMGWYRQAPGKERELVAAINTGDSTYYADSVKGRFTISRDNAKNTVYLKMNSLKPVDSAVYYCAAEGSPTGYDYWGQGTQVTVTS
  polyreactivity (PSR sort gate): low polyreactivity

## QVQLVESGGVLVQAGGSLRLSCAASGSIFGIYTMGWYIHATGKERELVAAISWSGGSTYYADSVKGRFTISRDNAKNTVFLQMNSLKPEDTAVYYCAAVPWASDGYDSWGQGTQVTVSS
  polyreactivity (PSR sort gate): low polyreactivity

## QVQLVESGGGLVQAGGSLRLSCAASGLILTWNAMGWYRQAPGKERELVAAISRSDGITYYADSVKGRFTISRDTAKNTVYIQMNSLKPEDTAVYYCAKDGVPKGRGGAYYEYDYWGQGTQVTVSS
  polyreactivity (PSR sort gate): low polyreactivity

## QVQLVESGGGLVQAGGSLRLSCAASGYIFTTNAMGWYRQAPGKERELVAAISSSGGSTYYADSVKGRFTISRDNAKNTVYLQMNSLKPEDTAVYYCAVRRSTGSRSPPMYYWGQGTQVTVSS
  polyreactivity (PSR sort gate): high polyreactivity

## HYHLVESGGGLVQAGGSLRLSCAASAFTFVQYAMGWYRQAPGKERELVATISKSGGITYYADSVKGRFTISRDNAKNTVYLQMNSLKPEDTAVYYCAAAWYYSSRGFHATWGHDYWGQGTQVTVSS
  polyreactivity (PSR sort gate): low polyreactivity

## QVQLVESGGGLVQAGGSLRLSCAASGIIFYWYAMGWYRQAPGKERELVAAISASGASTYYADSVKGRFTISRDNAKNTVYLQMNSLKPEDTAVYYCAAEHPWSRYDYWGQGTQVTVSS
  polyreactivity (PSR sort gate): high polyreactivity

## QVQLVESGGGLVQAGGSLRLSCAASGRTFGYYAMGWYIQAPGKERELVAAISSRGGSTYYADSVKGRFTISRDNAKNTVYLQMNSLKPEDTAVYYCNTRWTNIHPRYDYWGQGTQVTVSS
  polyreactivity (PSR sort gate): high polyreactivity

## QVQLVESGRGLVQAGGTLRLSCAASGRIFYWNAMGWYRQAHGKERELVAAISWSGGSTYYADSVKGRFTISRDNAKNTVYLQMNSLKPEDTAVYYCAADGGRRTYYVKYDYWGQGTQVTVSS
  polyreactivity (PSR sort gate): low polyreactivity

## QVQLLESGAGLVQAGGSLRLSSAASGSIFNLNAMAWYRQAPGKERELVAGIRWSGGRTYYADSVKGRFTISRDNAKNTVYLQMNSLKPVDNEVYYCTAVGYLSWWYDYEYWGQGTQVTVST
  polyreactivity (PSR sort gate): high polyreactivity

## QVNLVYSAGGLVQAGGILRLSCTASGCTFYYNAMGWYRQEPGKVREVVARISRSGGSTYEDSVKGRFTISRDNAKNTVYLPMNSLKPEDTAVYYCNADAYGTPEFTSYAVSYDLWGQGTQVTVSS
  polyreactivity (PSR sort gate): low polyreactivity

## QVQLVESGGGLVQAGGSLRLSCAASGFIFGGDPMGWYRQARGSDRELVAAISSSGGRTYYADSVKRRFTISRDNAKNNVYLQLNSLKPEDTAVYSCAVPRFGSAAKRYYYWGQGTQVTVTS
  polyreactivity (PSR sort gate): high polyreactivity

## QVQLVESGGGLVQAGGSLRLSCAASGSIFPGNAMGWYRQEPRKERELVAAITKGDGSTNYADSVKGRFTISRDNAKNTVYLQLNSLITEDTAVYYCADRSRVFGYQGYDYWGQGTQVTVSS
  polyreactivity (PSR sort gate): low polyreactivity

## QVQLVESGGGLVQAGGSLRLICAASGNIFSYNAMGWYRQAPGKERELVAAISRRGGSTFYADSVKGRFTISRDKAKNTVYLQMNSLKPEDTAVYYCAASRNRYSYGYWGQGTQVTVSS
  polyreactivity (PSR sort gate): high polyreactivity

## QVQLVESGGGLVQAGGSLRLSCAASGSIFGVYAMGWYRQAPGKERELVAAIDSGSSTDYADSVKGRFTISRDNAKNTVYLQMNSLKPEDTAVYYCYPLDLAPVDYWGQGTQVTVSS
  polyreactivity (PSR sort gate): low polyreactivity

## QVQLQESSGGLVQAGGSLRMSCAASGTIFHFHIMGWYRQAPGKEREFVAAISYGTSTYYADSVKGRFTISRDNAKKTVYLQMNSQKPEDTAVYYCAVYDDLEVYCWYWGQGTEVTVSS
  polyreactivity (PSR sort gate): low polyreactivity

## QVQLVESGVGLVQAGGSLRLSSAASGFTFVSNDMGWYRQAPGKERELVAAIRYRGGDTYYADSVKGRFTISRDNAKNTVYLQMNSMKPEDTAVYYCAVDVATYTAGWYYHGYDYWGQGTQVTVSS
  polyreactivity (PSR sort gate): low polyreactivity

## QVQLVESGGGLVQAGGSLRLSCAASGITFPGYAMGWYRQAPGKERELVAAISTSGGSTYYADSVKGRFTISRDNAKNTVYLQMIRLKPEDTAVYYCAADSFVTSFHWRFDYWGQGTQVTVSS
  polyreactivity (PSR sort gate): low polyreactivity

## QVQLVESGGGLVQAGGSLRLSCAASGRIFGRYVMGWYRQAPGKERELVAAITSGGSTYYADSVKGRFTISRDNAKNTVYLQMNSLKPEDTAVYYCATRLFYPRFYYWGQGTQVTVSS
  polyreactivity (PSR sort gate): high polyreactivity

## QVKLVEAGGGLVQAGGSLRFSCAASGNIFQGNARGWYREAPGKERELVAAITYSGAGTYYADSVKGRFTISRDNAKNSVYLQMNSLNPEDTAVYYSAADWYTFEYDYWGQGTQVTVSS
  polyreactivity (PSR sort gate): low polyreactivity
